Measurements published in publication PMC10962793, “Structural and functional characterization of sulfurtransferase from Frondihabitans sp. PAMC28461” (PLOS ONE, 2024).

How the values were obtained:
FrST = target: T1, FrST (Frondihabitans sp., UniProt Z9JZO3RSK1); assay: colorimetric ferric thiocyanate assay at […] nm, Michaelis-Menten fit; type: biochemical; details: read-out: Kinetic parameters^* / Km
T1 construct: synthetic gene in pET28a, E. coli BL21(DE3); His-tag cleaved with thrombin; model 302 residues; catalytic Cys247

[1] = target: sulfurtransferase FrST from Frondihabitans sp. PAMC28461 (Frondihabitans sp. PAMC28461); assay: AUC; sedimentation velocity, 20 mM Tris-HCl pH 8.0, 200 mM NaCl, 20°C, 42,000 RPM, 280 nm, SEDFIT
CC(CS)C(=O)O = assay: purified protein; type: biochemical, Frondihabitans sp.; details: pH 8.0; 25.0 °C
CS(=O)(=O)S = assay: purified protein; type: biochemical, Frondihabitans sp.; details: pH 8.0; 25.0 °C
O=C(O)C(=O)CS = assay: purified protein; type: biochemical, Frondihabitans sp.; details: pH 8.0; 25.0 °C
O=C(O)CCS = assay: purified protein; type: biochemical, Frondihabitans sp.; details: pH 8.0; 25.0 °C
O=S(=O)(S)c1ccccc1 = assay: purified protein; type: biochemical, Frondihabitans sp.; details: pH 8.0; 25.0 °C

How did the Km (FrST) turn out when O=S(O)(O)=S [Sodium thiosulfate] was run?
The Km was 6.3 ± 0.2 mM.

Which stoichiometry N [1] does the source give for “sulfurtransferase FrST from Frondihabitans sp. PAMC28461 (enzyme)” here?
The stoichiometry N was 2.

For FrST (Frondihabitans sp.), which Km (CC(CS)C(=O)O) is on record?
Its Km is 4.1 ± 0.4 mM.

What about the Vmax (CC(CS)C(=O)O) of the same molecule?
Its Vmax is 17.8 µmol/min/mg.

And the kcat/Km (CC(CS)C(=O)O)?
Its kcat/Km is 240 M⁻¹ s⁻¹.

What about the Km (CS(=O)(=O)S) of the same molecule?
The Km was 6.0 ± 0.3 mM.

And the Vmax (CS(=O)(=O)S)?
The Vmax was 1490 µmol/min/mg.

What about the kcat/Km (CS(=O)(=O)S) of the same molecule?
Its kcat/Km is 14200 M⁻¹ s⁻¹.

What about the Km (O=C(O)C(=O)CS) of the same molecule?
The Km was 13.9 ± 2.6 mM.

And the Vmax (O=C(O)C(=O)CS)?
The Vmax was 150 µmol/min/mg.

And the kcat/Km (O=C(O)C(=O)CS)?
The kcat/Km was 610 M⁻¹ s⁻¹.

What about the Km (O=C(O)CCS) of the same molecule?
Its Km is 10.7 ± 1.3 mM.

What about the Vmax (O=C(O)CCS) of the same molecule?
The Vmax was 43.7 µmol/min/mg.

What about the kcat/Km (O=C(O)CCS) of the same molecule?
Its kcat/Km is 250 M⁻¹ s⁻¹.

And the Km (O=S(=O)(S)c1ccccc1)?
Its Km is 6.1 ± 0.9 mM.

What about the Vmax (O=S(=O)(S)c1ccccc1) of the same molecule?
The Vmax was 7810 µmol/min/mg.

And the kcat/Km (O=S(=O)(S)c1ccccc1)?
Its kcat/Km is 73000 M⁻¹ s⁻¹.
